Source: the nanobody polyreactivity screen of Harvey et al. (2022)

test: yeast display, Sf9 membrane polyspecificity reagent, FACS + sequencing; frameworks hold sequencing errors
Method in brief: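 Synthetic nanobody libraries on Saccharomyces cerevisiae BJ5465 were galactose-induced for 36–48 hours, stained 1 hour at 4 °C with 10% biotinylated, detergent-solubilized Sf9 membrane reagent and enriched on streptavidin microbeads. FACS then separated cells into low and high (top ~1%) gates by anti-HA (expression) and streptavidin (reagent binding) fluorescence. Genes were colony-PCR amplified, MiSeq 2 × 250 sequenced and CDR-length filtered. A clone's polyreactivity label is that of its gate of origin.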

Row | Sequence | polyreactivity (PSR sort gate)
1 | QVQLVESGGGLVQAGGSLRLSCAASGSISGYYTMGWYRQAPGKERELVAAISRSGVRTYYADSVKGRFTISRDNAMNTVYLQMNSLKPEDTAVYYCARKDSSLGDYWGQGTQVTVSS | high polyreactivity
2 | QVQLVESGGGLVQAGGSLRLSCAASGSISGYYVMGWYRQAPGKERELVAAITWRGGSTYYADSVKGRFTISRDNAKNTVYLQMNSLKPEDTAVYYCNKVPGRRSTFEYWGQGTQVTVSS | high polyreactivity
3 | QVQLVESGGGLVQAGGSLRLSCAASGSISIRNAMGWYRQAPGTERELVAAITYSGGSTYYADSVKGRFTISRDNAKNTVYLQLNRLKPEDTAVYYCAKDHYRFRYDYWGQGTQVTVSS | low polyreactivity
4 | QVQLVESGGGLVQAGGSLRLSCAASGSISKFYAMGWYRQAPGKERELVAAISSGGITNYADSLKGRFTISRDNAKNTVYLQMNSLKPEDTAVYYCAKDYPYYEGAKYYYWGQGTQVTVSS | high polyreactivity
5 | QVQLVESGGGLVQAGGSLRLSCAASGSISKINAMGWYRQAPGKERELVAAINTGDSTYYADSVKGRFTISRDNEKNTVYLQMNSLKPEDTAVYYCAAEGSPTGYDYWGQGTQVTVSS | low polyreactivity
6 | QVQLVESGGGLVQAGGSLRLSCAASGSISKYTMGWYRQAPGKERELVAAINWSGGSTYADSVKGRFTISRDNAKNTVYLQMNSLKPEATAVYYCNARAQRGYFGYRYNYWGQGTQVTVSS | high polyreactivity
7 | QVQLVESGGGLVQAGGSLRLSCAASGSISLLYAMGWYRQAPGKDRELVAAISSGTDDTYYADSVKGRFTISRDNAKNTVYLQMNSLKPEDTAVYYCAADPLFKDDLWPVRVRVDYWGQGTQVTVSS | low polyreactivity
8 | QVQLVESGGGLVQAGGSLRLSCAASGSISQTYAMGWYRQAPGKERELVAAISSSGASTYYADSVKGRFTISRDNAKNTVYLQMNCLKPEDTAVYYCAALGRYRYIYNYWGQGTQVTVSS | high polyreactivity
9 | QVQLVESGGGLVQAGGSLRLSCAASGSISRYAMGWSRQAPGKERELVAAITRSGGSTHYADSVKGRFTISRDNAKNTVYLQMNSLKPEDTAVYYCATRYYRGVIRYPYDSWGQGTQVTVSS | high polyreactivity
10 | QVQLVESGGGLVQAGGSLRLSCAASGSISSGYFMGWYRQAPGKERELVAAISFSGGSTYYADSVKGRFTISRDNAKNTVYLQMNSLKPEDTAVYYCNALFWYRYFSGVSQDYDYWGQGTQVTVSS | high polyreactivity
11 | QVQLVESGGGLVQAGGSLRLSCAASGSISSKNSMGWYRQAPGKEREFVAVISGTGGSTYYSDSVKGRFTISRDIAKNTVYLQMNSLKPEDTAVYYCAADFPWSTKSWHPDSGDSWGQGTQVTVSS | low polyreactivity
12 | QVQLVESGGGLVQAGGSLRLSCAASGSISTFYAMGWYRQAPGKEREFVAAISTRDGTTRYADSVKGRFTISRDNAKNTVYLQMNSLKPEDTAVYYCAAKGGGVWLYARIYSDYYWGQGTQVTVSS | low polyreactivity
13 | QVQLVESGGGLVQAGGSLRLSCAASGSISTPYTMGWYRQAPGKERELVADISWIGDTTSYADSVKGRFTISRDNAKNTVYLLMNSLKPEDTAVYYCNAEHRGYEYWGQGTQVTVSS | low polyreactivity
14 | QVQLVESGGGLVQAGGSLRLSCAASGSISTWYAMGWYRQAPGKERELVAAINSGDSTYYADSVKGRFTISRDNAKNTVYLQMNSLKPEDTAVYYCAASSYSSKPFDYWGQGTQVTVSS | high polyreactivity
15 | QVQLVESGGGLVQAGGSLRLSCAASGSISTYYAMGWYRQAPGKERELVAAITRNGGSTYYADSVKGRFTISRDNSKNTVYLQMNSLKPEDTAVYYCAARNAFGTYYYWGQGTQVTVSS | high polyreactivity
16 | QVQLVESGGGLVQAGGSLRLSCAASGSISVANAMGWYRQAPGKERELVAAITDSGDDTYYADSVKGRFTISRDNAKNTVYLQMNSLKPEDTAVYYCAVEAWSVPPYDYWGQGTIVTVSS | low polyreactivity
17 | QVQLVESGGGLVQAGGSLRLSCAASGSISYFNAMGWYIQAPGKERELVAAISRGATTYADSVKGRFTISRDNAKNTVYLQMNSLKPEDTAVYYCNAGLRGNIRKSYRYDSWGQGTQVTVSS | high polyreactivity
18 | QVQLVESGGGLVQAGGSLRLSCAASGSISYFNAMGWYRPAPGKERELVAAITSGGSTYYADSVKGRFTISRDNAKNTVYLQMTSLKPEDTAVYYCNAPLEWGVYAAQNWDDGYWGQGTQVTVSS | low polyreactivity
19 | QVQLVESGGGLVQAGGSLRLSCAASGSISYFNAMGWYRQAPGKERELVAAITSGGSTYYADSVKGRFTISLDNAKNTVYLQMNSLKPEDTAVYYCNAPLEWGVYAAQNWDDGYWGQGTQVTVSS | low polyreactivity
20 | QVQLVESGGGLVQAGGSLRLSCAASGSISYFNDMGWYRQAPGKERELVAAIRDSGGITYADSVKGRFTISRDNAKNTVYLQMNSLKPEDTAVYYCATYGNEIYDYWGLGTQVTVSS | low polyreactivity
21 | QVQLVESGGGLVQAGGSLRLSCAASGSISYFYAMGWYRQAPGKERELVAAINSGDDTYADSVKGRFTISRDNAKNTVYLQMNSLKPEDTAVYYCAVKYGGYESHYYRRPHYDYWGQGTQVTVSS | low polyreactivity
22 | QVQLVESGGGLVQAGGSLRLSCAASGSISYIYTMGWDRQAPGKQRELVAAMSGSGSTYYADSVKGRFTISRDNAKNTVYLQMNSLKQEDTAVHYCNAGSGGLNFQEVPHGYDYWGQGTQVTVSS | low polyreactivity

Row | Sequence | polyreactivity (PSR sort gate)
23 | QVQLVESGGGLVQAGGSLRLSCAASGSISYKYAMGWYRQAPGKERELVAAISSSGGRTYYADSVKGRFTISRDNAKNTVYLQMNSLKPEDTAVYYCNADVLFYTYYTRGRFDFDYWGQGTQVTVSS | low polyreactivity
24 | QVQLVESGGGLVQAGGSLRLSCAASGSISYVNAMGWYRQAPGKERELVAAITGGGSTNYADSVKGRFTISRDNAKNTVYLQMNSLKPEDTAVYYCAADADTDVVYILQEYDYWGQGTQVTVSS | low polyreactivity
25 | QVQLVESGGGLVQAGGSLRLSCAASGSITGLNAMGWYRHAPGKERELVAAIYRSGGRTYNADSVKGRFTISRDNAKNTVYLQMISLKPEDTAVYYCAAVTTWRLDYWGQGTQVTVSS | high polyreactivity
26 | QVQLVESGGGLVQAGGSLRLSCAASGSIVHGYTMGWYRQEPGKERELVAAINSGDGSTYADSVKGRFPISRDNAKNTVYLQMNSLKPEDTAVYYCAADDSTLADGGDYWGQGTQVTVSS | low polyreactivity
27 | QVQLVESGGGLVQAGGSLRLSCAASGSIVIINAMGWYRQAPGKERELVASMTRNGGSTYYADSVKGRFTISRDNPKNTVEFQMNSLKPDDTAVYYCAATYYRFPSLIAYVRYDYWGQGTQVTVSS | high polyreactivity
28 | QVQLVESGGGLVQAGGSLRLSCAASGSIVPVYAMGWYRQAPGKEREFVAGINTIGGSTYYADSVKGRFTISRDNAKNTVYLQMNSLKPEDTAVYYCAATQYWNMYSWGQGTQVTVSS | low polyreactivity
29 | QVQLVESGGGLVQAGGSLRLSCAASGSIVSGYAMRWYRQAPGKQRELVAAISRGGSTNYADSVKGRFTISRDNAKNTVYLQMNSLKPEDTAVYYCANTPTKYHYAFGYWGQCTQVTVSS | low polyreactivity
30 | QVQLVESGGGLVQAGGSLRLSCAASGSIVSVYAMGWSRQAPGKEREWVAAISGRGGRTYYADSVKGRFTISRDNAKNTVYLQMNSLKPVDTAVYYCAARYPRYRYVEYGYNYWGQGTQVTVSS | high polyreactivity
31 | QVQLVESGGGLVQAGGSLRLSCAASGSIWRNAMGWYRQAPGKERELVAGITRRSGSTYYADSVKGRFTISRDNAKYTVYLQMNSLKPEDTAVYYCARVVVGGDDYWGQGTQVTVSS | high polyreactivity
32 | QVQLVESGGGLVQAGGSLRLSCAASGSIYARNAMGWYRQAPGKERELVAAIRYSGGSTYYADSVKGRFTISRDNAKNTVYLQMNSLKPEDTAVYYCAARWGVFGYYYWGQVTQVTVSS | high polyreactivity
33 | QVQLVESGGGLVQAGGSLRLSCAASGSIYGYNAMGWYRQAPGKEREFVAAISWSGGRTYYADSVKGRFTISRDTAKNTVYLQMNSLNPEDTAVYYCAAPSRPAPRFDYWGQGTQVTVSS | low polyreactivity
34 | QVQLVESGGGLVQAGGSLRLSCAASGSIYGYTMGWNRQAPWKERELVAAINRRADRTYYADSVKGRFTISRDNAKNTVYLQMNSLKPEDTAVYYCNKGGWYTLGYWGQGTQVTVSS | high polyreactivity
35 | QVQLVESGGGLVQAGGSLRLSCAASGSIYNKNAMGWNRQAPGKERELVAAINQSGGGTYYADSVKGRFTISRDNAKNTVYLQMNSLKPEDTAVYYCAAQVWAGIRYYHMYYWGQGTQVTVSS | low polyreactivity
36 | QVQLVESGGGLVQAGGSLRLSCAASGSIYRYAMGWYRQAPGKERELVAAINFNGGRTYYADSVKGRFTISRDNAKNTVYIQMNSLKPEDTAVYYCAAVRSSNQGGFDYWGQGTQVTVSS | high polyreactivity
37 | QVQLVESGGGLVQAGGSLRLSCAASGSIYTSNAMGWYRQAPGKERELVAVITWRSGRTYYADSVKGRFTISRDNAMNTVYLQMNSLKPEDTAVYYCDALRYPKQKFDSWGQGTQVTVSS | high polyreactivity
38 | QVQLVESGGGLVQAGGSLRLSCAASGSIYVNTMGWYRQAPGKEREFVAAITRRGGSTYYADSVKGRFTISRDNAKNTVYLQMNSLKPEDTAVYYCNADNRYSAHDYWGQGTQVTVSS | high polyreactivity
39 | QVQLVESGGGLVQAGGSLRLSCAASGSIYYFNAMGWYRQAPGKERELVASITSGGSTNYADSVKGRFTLSRDNAKNTVYLQMNSLNPEDTAVYYCNARFPYLSRWLVRGLASYDYWGQGTQVTVSS | low polyreactivity
40 | QVQLVESGGGLVQAGGSLRLSCAASGSLFEWYAMGWSRQAPGKEREFVADITYNGGSTYYADSVKGRFTISRDNAKNTVYLHMNSLKPEDTAVYYCAADYFVQVPDYYYPSEYGYWGQGTQVTVSS | low polyreactivity
41 | QVQLVESGGGLVQAGGSLRLSCAASGSLFNYYAMAWSRTAPGKERELVAGITTSGGSTYYAESVKGRFRISRDNAKNTVYLQMNSLKPEDTAVYYCAAYDYISSTYFLDDYWGQGTQVTVSS | low polyreactivity
42 | QVQLVESGGGLVQAGGSLRLSCAASGSLFTGYAMGWYRQAPGKERELVAAISSSGSTTYYADSVKGRFTISRDNAKNTVYLQMNSLKPEDTAVYYCATRVNYGYYYWGQGSQVTVSS | high polyreactivity
43 | QVQLVESGGGLVQAGGSLRLSCAASGSLFYFYAMGWYRQAPGKERELVAAISSGGSTYYADSVKGRFTISRDNAKNTVYLQMNSLKPEDTEVYYCAADSLYYRYDYWGQGTQVTVSS | low polyreactivity
